Test results as given in PMC9399855 (2022).

What was measured:
[1] = molecular target: T1, 6.3HIP 2-14 (N-terminal truncation of the 6.3HIP) peptide on I-Ag7 (mouse); test: cytokine release
T1 peptide: ALYLVCSVDQDLG

[2] = molecular target: T2, 6.3HIP 10D>R (mutant of B13-19/ProSAAS 219-225) peptide on I-Ag7 (mouse); test: cytokine release
T2 peptide: EALYLVCSVRQDLG

[3] = molecular target: T3, 6.3HIP -1-14 (6.3HIP with a valine added at the N-terminus); RESTORED: the article prints …, which lacks the … (mouse); test: cytokine release
T3 peptide: VEALYLVCSVDQDLG

[4] = molecular target: T4, hybrid insulin peptide 6.3HIP: insulin B-chain B13-19 joined to ProSAAS 219-225 peptide on I-Ag7 (mouse); test: cytokine release
T4 peptide: EALYLVCSVDQDLG

[5] = molecular target: T5, 6.3HIP 12D>R (mutant of B13-19/ProSAAS 219-225) peptide on I-Ag7 (mouse); test: cytokine release
T5 peptide: EALYLVCSVDQRLG

[6] = molecular target: T6, 6.3HIP 1-11: insulin B-chain B13-19 joined to ProSAAS 219-222 peptide on I-Ag7 (mouse); test: multimer staining
T6 peptide: EALYLVCSVDQ

binding result [1]: no recognition
binding result [2]: no recognition
binding result [3]: recognises
binding result [4]: recognises
binding result [5]: recognises
binding result [6]: recognises
B1: PD12-4.4 (TCR)
alpha TRAV5D-4 TRAJ53 CDR3: CAASASGGSNYKLTF
beta TRBV5 CDR3: CASSQDTNTGQLYF
